What all share (conditions): other: L-stereoisomer; least squares fit of induced inward current vs substrate concentration; mean ± standard error, at least 5 determinations
Substrate in series [1]: CC(C)[C@H](N)C(=O)O
Nature of the series: amino acid-induced inward current in voltage-clamped ASCT1-injected Xenopus oocytes. Type of series: cell-based, human.

Substrate in series [2]: N[C@@H](CO)C(=O)O
The series is described as above. The series is classed as cell-based, human.

Substrate in series [3]: N[C@@H](CS)C(=O)O
Described as above. Type of series: cell-based, human.

Substrate in series [4]: C[C@@H](O)[C@H](N)C(=O)O
Nature of the series: cells, lysate or membranes.

Substrate in series [5]: C[C@H](N)C(=O)O
Nature of the series: cells, lysate or membranes.

B1: human ASCT1 neutral amino acid transporter (Homo sapiens) (protein)
chain: MEKSNETNGYLDSAQAGPAAGPGAPGTAAGRARRCAGFLRRQALVLLTVSGVLAGAGLGAALRGLSLSRTQVTYLAFPGEMLLRMLRMIILPLVVCSLVSGAASLDASCLGRLGGIAVAYFGLTTLSASALAVALAFIIKPGSGAQTLQSSDLGLEDSGPPPVPKETVDSFLDLARNLFPSNLVVAAFRTYATDYKVVTQNSSSGNVTHEKIPIGTEIEGMNILGLVLFALVLGVALKKLGSEGEDLIRFFNSLNEATMVLVSWIMWYVPVGIMFLVGSKIVEMKDIIVLVTSLGKYIFASILGHVIHGGIVLPLIYFVFTRKNPFRFLLGLLAPFATAFATCSSSATLPSMMKCIEENNGVDKRISRFILPIGATVNMDGAAIFQCVAAVFIAQLNNVELNAGQIFTILVTATASSVGAAGVPAGGVLTIAIILEAIGLPTHDLPLILAVDWIVDRTTTVVNVEGDALGAGILHHLNQKATKKGEQELAEVKVEAIPNCKSEEETSPLVTHQNPAGPVASAPELESKESVL
notes: expressed in transfected cells; host or cells: Xenopus laevis oocytes injected with in vitro transcribed RNA (pOTV vector)
On to B1, for which the Km in series [1] amounted to 390 ± 8 µM; in series [2], 88 ± 11 µM; in series [3], 29 ± 6 µM; in series [4], 137 ± 19 µM; in series [5] it was 71 ± 14 µM.

As usually defined, the Km is the substrate concentration at which the rate is half of its maximum.

The record behind these values is US6537803B1, “Amino acid transporters and uses” (Oregon Health Sciences University, priority 1993, dated 2003).
